Source: paper doi:10.1101/2025.04.29.651185

Key:
[1] = molecular target: flotillin-associated rhodopsin from the marine SAG AG-319-B05 Pseudothioglobus (PsFAR) (Pseudothioglobus sp. (SAG AG-319-B05)); experiment: cryo-EM structure
[2] = molecular target: proteorhodopsin from the marine SAG AG-319-B05 Pseudothioglobus (PsPR) (Pseudothioglobus sp. (SAG AG-319-B05)); experiment: cryo-EM structure

Row | Substance | stoichiometry N [1] | stoichiometry N [2]
1 | flotillin-associated rhodopsin from the marine SAG AG-319-B05 Pseudothioglobus (PsFAR) (natural protein) | 5 | –
2 | proteorhodopsin from the marine SAG AG-319-B05 Pseudothioglobus (PsPR) (natural protein) | – | 5
